According to patent US11814435B2, “Therapeutic antibodies and their uses” (PFIZER INC., priority 2015, dated 2023):
Positions count from the first letter of the chain named. Values belong to the molecule of their own block, whether it stands above or below them.

Key:
[1] = target: T1, hBCMA (human BCMA) (Homo sapiens, UniProt Q02223); test: Kinetics and affinity of hBCMA/human IgG interactions by SPR (Bio-Rad Proteon XPR36); type: binding; settings: huBCMA, 37° C.
T1 sequence (Q02223 1-184): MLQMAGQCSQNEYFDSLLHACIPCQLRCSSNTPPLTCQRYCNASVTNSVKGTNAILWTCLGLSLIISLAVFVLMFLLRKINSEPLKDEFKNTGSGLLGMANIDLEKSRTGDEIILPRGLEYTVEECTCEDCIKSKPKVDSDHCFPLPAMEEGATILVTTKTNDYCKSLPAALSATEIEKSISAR
Procedure: All experiments were performed on a Bio-Rad Proteon XPR36 surface Plasmon resonance biosensor (Bio-Rad, Hercules, Calif.). An array of anti-BCMA antibodies was prepared using an amine-coupling method on a Bio-Rad GLC Sensor Chip similar to that described in Abdiche, et al., Anal. Biochem. 411, 139-151 (2011). The analysis temperature for the immobilization was 25° C. and the running buffer was HBS-T+(10 mM HEPES, 150 mM NaCl, 0.05% Tween-20, pH 7.4). Channels were activated in the analyte (horizontal) direction by injecting a mixture of 1 mM ECD and 0.25 mM NHS for 3 minutes at a flow rate of 30 μL/min. IgGs were immobilized on the activated spots by injecting them in the ligand (vertical) direction at 20 μg/mL in 10 mM Acetate pH 4.5 buffer for 1.5 minutes at […]. The activated surfaces were blocked by injecting 1M ethanolamine, pH 8.5 in the analyte direction for 3 minutes at 30 μL/min.
The analysis temperature for the hBCMA binding analysis was 37° C. or 25° C. in a running buffer of HBS-T+, supplemented with 1 mg/mL BSA. A kinetic titration method was employed for the interaction analysis as described in Abdiche, et al. The hBCMA (human BCMA) analyte was injected in the analyte direction using a series of injections from low to high concentration. The concentrations used were 0.08 nM, 0.4 nM, 2 nM, 10 nM and 50 nM (a 5-membered series, with a 5-fold dilution factor and top concentration of 50 nM). The association time for a given analyte dilution was two minutes. Immediately after the 50 nM hBCMA injection, dissociation was monitored for 2 hours. Prior to the hBCMA analyte injections, buffer was injected 5 times using the same association and dissociation times at the hBCMA analyte cycles to prepare a buffer blank sensorgram for double-referencing purposes (double referencing as described in Myszka, J. Mol. Recognit. 12, 279-284 (1999).
The sensorgrams were double-referenced and fit to a 1:1 Langmuir with mass transport kinetic titration model in BIAevaluation Software version 4.1.1 (GE Lifesciences, Piscataway, N.J.). The sensorgrams and fits are shown in FIG. 1, and the kinetics and affinity parameters for various anti-BCMA antibodies of the present invention are shown in Tables 6A-6C.

[2] = system: cyBCMA; test: Kinetics and affinity of cyBCMA/human IgG interactions by SPR (Bio-Rad Proteon XPR36); type: binding, cynomolgus; settings: 37° C.

B2: L3.PY/H2.DY: anti-BCMA antibody (antibody, V domains shown)
VH: EVQLLESGGGLVQPGGSLRLSCAASGFTFGSYAMTWVRQAPGKGLEWVSAIDYSGGNTFYADSVKGRFTISRDNSKNTLYLQMNSLRAEDTAVYYCARVSPIASGMDYWGQGTLVTVSS
VL: EIVLTQSPGTLSLSPGERATLSCRASQSVSSSYLAWYQQKPGQAPRLLIYGASSRATGIPDRFSGSGSGTDFTLTISRLEPEDFAVYYCQHYPYPPSFTFGQGTKVEIK
ka (1/Ms) huBCMA @ 37° C. [1]: 2.6e+06 M⁻¹ s⁻¹
kd (1/s) huBCMA @37° C. [1]: 0.00138 s⁻¹
ka (1/Ms) cyBCMA @ 37° C. [2]: 2.24e+06 M⁻¹ s⁻¹
kd (1/s) cyBCMA @37° C. [2]: 0.00618 s⁻¹

B3: L3.PY/H3.AE: anti-BCMA antibody (antibody, V domains shown)
VH: B2 VH with D52S, Y53G, S104A, G105E
VL: B2 VL
ka (1/Ms) huBCMA @ 37° C. [1]: 3.29e+06 M⁻¹ s⁻¹
kd (1/s) huBCMA @37° C. [1]: 0.00139 s⁻¹
ka (1/Ms) cyBCMA @ 37° C. [2]: 2.82e+06 M⁻¹ s⁻¹
kd (1/s) cyBCMA @37° C. [2]: 0.00504 s⁻¹

B4: L3.PY/H3.YA: anti-BCMA antibody (antibody, V domains shown)
VH: B2 VH with D52S, Y53G, A103Y, S104A
VL: B2 VL
ka (1/Ms) huBCMA @ 37° C. [1]: 3.15e+06 M⁻¹ s⁻¹
kd (1/s) huBCMA @37° C. [1]: 0.00118 s⁻¹
ka (1/Ms) cyBCMA @ 37° C. [2]: 2.87e+06 M⁻¹ s⁻¹
kd (1/s) cyBCMA @37° C. [2]: 0.0054 s⁻¹

B7: L3.PY/H2.HA: anti-BCMA antibody (antibody, V domains shown)
VH: B2 VH with D52S, Y53H, S54A
VL: B2 VL
ka (1/Ms) huBCMA @ 37° C. [1]: 2.43e+06 M⁻¹ s⁻¹
kd (1/s) huBCMA @37° C. [1]: 0.00147 s⁻¹
ka (1/Ms) cyBCMA @ 37° C. [2]: 1.99e+06 M⁻¹ s⁻¹
kd (1/s) cyBCMA @37° C. [2]: 0.00755 s⁻¹

B10: L3.PY/H2.QR: anti-BCMA antibody (antibody, V domains shown)
VH: B2 VH with D52S, Y53G, S63Q, V64R
VL: B2 VL
ka (1/Ms) huBCMA @ 37° C. [1]: 2.56e+06 M⁻¹ s⁻¹
kd (1/s) huBCMA @37° C. [1]: 0.00119 s⁻¹
ka (1/Ms) cyBCMA @ 37° C. [2]: 2.18e+06 M⁻¹ s⁻¹
kd (1/s) cyBCMA @37° C. [2]: 0.00658 s⁻¹

Now from value to molecule, other results behind:

ka (1/Ms) huBCMA @ 37° C. [1]: 3.07e+06 M⁻¹ s⁻¹
kd (1/s) huBCMA @37° C. [1]: 0.00905 s⁻¹
kd (1/s) cyBCMA @37° C. [2]: 0.00998 s⁻¹
B1: L3.PY/L1.PS/H3.YA: anti-BCMA antibody (antibody, V domains shown)
VH: B2 VH with D52S, Y53G, A103Y, S104A
VL: B2 VL with L34P, A35S
ka (1/Ms) cyBCMA @ 37° C. [2]: 1.77e+06 M⁻¹ s⁻¹

ka (1/Ms) huBCMA @ 37° C. [1]: 3.4e+06 M⁻¹ s⁻¹
kd (1/s) huBCMA @37° C. [1]: 0.00465 s⁻¹
kd (1/s) cyBCMA @37° C. [2]: 0.00411 s⁻¹
B5: L3.PY/L1.PS/H2.LT: anti-BCMA antibody (antibody, V domains shown)
VH: B2 VH with D52S, Y53L, S54T
VL: B2 VL with L34P, A35S
ka (1/Ms) cyBCMA @ 37° C. [2]: 2.17e+06 M⁻¹ s⁻¹

ka (1/Ms) huBCMA @ 37° C. [1]: 3.25e+06 M⁻¹ s⁻¹
kd (1/s) huBCMA @37° C. [1]: 0.00246 s⁻¹
kd (1/s) cyBCMA @37° C. [2]: 0.00552 s⁻¹
B6: L3.PY/L1.PS/H3.TAQ: anti-BCMA antibody (antibody, V domains shown)
VH: B2 VH with D52S, Y53G, A97T, S104A, G105Q
VL: B2 VL with L34P, A35S
ka (1/Ms) cyBCMA @ 37° C. [2]: 2.58e+06 M⁻¹ s⁻¹

ka (1/Ms) huBCMA @ 37° C. [1]: 3.97e+06 M⁻¹ s⁻¹
kd (1/s) huBCMA @37° C. [1]: 0.103 s⁻¹
kd (1/s) cyBCMA @37° C. [2]: 0.00067 s⁻¹
B8: L3.PY/L1.PS/H2.QR: anti-BCMA antibody (antibody, V domains shown)
VH: B2 VH with D52S, Y53G, S63Q, V64R
VL: B2 VL with L34P, A35S
ka (1/Ms) cyBCMA @ 37° C. [2]: 525000 M⁻¹ s⁻¹

ka (1/Ms) huBCMA @ 37° C. [1]: 1.52e+07 M⁻¹ s⁻¹
kd (1/s) huBCMA @37° C. [1]: 0.314 s⁻¹
kd (1/s) cyBCMA @37° C. [2]: 0.000636 s⁻¹
B9: L3.PY/L1.PS/H2.QL: anti-BCMA antibody (antibody, V domains shown)
VH: B2 VH with D52S, Y53G, S63Q, V64L
VL: B2 VL with L34P, A35S
ka (1/Ms) cyBCMA @ 37° C. [2]: 657000 M⁻¹ s⁻¹
